Test [1] concerns the target T1, human CD39 (gene ID 953) (human, UniProt P49961 5-510).
T1 construct: Cell-surface form: transiently or stably transfected HEK cells, PBMCs, AML cell lines; also called native CD39; human CD39 transfected HEK cells
T1 sequence: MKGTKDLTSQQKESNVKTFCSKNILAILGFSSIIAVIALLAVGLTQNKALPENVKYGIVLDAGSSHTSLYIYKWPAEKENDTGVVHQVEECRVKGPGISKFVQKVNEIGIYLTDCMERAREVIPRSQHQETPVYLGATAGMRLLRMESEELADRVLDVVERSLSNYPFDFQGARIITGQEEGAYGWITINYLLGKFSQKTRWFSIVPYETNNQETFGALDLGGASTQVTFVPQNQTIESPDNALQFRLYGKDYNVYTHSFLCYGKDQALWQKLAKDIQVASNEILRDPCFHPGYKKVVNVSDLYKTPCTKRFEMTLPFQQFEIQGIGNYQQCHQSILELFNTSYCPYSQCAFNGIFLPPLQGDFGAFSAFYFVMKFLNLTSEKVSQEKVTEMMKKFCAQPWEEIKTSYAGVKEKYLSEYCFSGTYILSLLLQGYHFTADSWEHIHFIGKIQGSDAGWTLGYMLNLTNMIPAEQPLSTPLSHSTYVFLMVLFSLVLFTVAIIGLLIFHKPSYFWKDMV
Description: flow cytometry, rabbit IgG hcAb supernatant on transfected HEK cells.

Test [2] deals with recombinant human CD39 ectodomain with C-terminal His6x tag (human) (UniProt P49961). Description: BLI (Octet RED96), rabbit IgG hcAb on protein A biosensor, recombinant CD39 ectodomain as analyte.
Test [3] has the same target. As to the kind of experiment: BLI (Octet RED96), rabbit IgG hcAb on protein A biosensor, recombinant CD39 ectodomain as analyte at 200 ng/µl.

B1: SB28 rabbit IgG hcAb (Fc fusion, not shown: a dimerising Fc or GST)
VHH: QVQLVESGGGLVQPGGSLRLSCAASGSIFNFNAMGWYRQAPGKQRELVAAITSGGSTNYADSVKGRFTISRDNAKNTVYLQMNSLKPEDTAVYYCHGIGGSTWFGEEEYDYWGQGTQVTVSS
notes: also called family 1
As to B1, the binding result in test [1] was “binds”. The off-rate constant (koff) in test [2] was 0.0003 s⁻¹; in test [3], 0.00039 s⁻¹.

B2: SB129 rabbit IgG hcAb (Fc fusion, not shown: a dimerising Fc or GST)
VHH: QVQLVESGGGLVQAGDSLRLSCAASGRTPITTTTGWFRQAPGKEREFVAAIRWNSGDAAYADSAKGRFTISRDSAKNTLYLQMNNLEPEDTAVYYCAAKYSRYAPQSTDYDYWGQGTQVTVSS
notes: also called family 2
For the molecule B2, the binding result in test [1] was “binds”. In addition, the off-rate constant (koff) in test [2] is 0.05 s⁻¹; in test [3] it was 0.052 s⁻¹.
